Experiments:
FcRn receptor = experiment: SPR (Biacore T200), FcRn on CM5 chip, steady state analysis, pH 6.0; pH 6.0
[1] = biological target: CD3 on the cell surface of Jurkat E6.1 cells (UniProt P07766); experiment: flow cytometry on Jurkat E6.1 cells, 100 nM antibody, anti-IgG1-PE; negative control
[2] = biological target: CD3 on the cell surface of Jurkat E6.1 cells (UniProt P07766); experiment: flow cytometry on Jurkat E6.1 cells, 316 nM antibody, anti-IgG1-PE; negative control
[3] = biological target: CD3 on the cell surface of Jurkat E6.1 cells (UniProt P07766); experiment: flow cytometry on Jurkat E6.1 cells, 10 nM antibody, anti-IgG1-PE; negative control
[4] = biological target: CD3 on the cell surface of Jurkat E6.1 cells (UniProt P07766); experiment: flow cytometry on Jurkat E6.1 cells, 1 nM antibody, anti-IgG1-PE; negative control
[5] = biological target: CD3 on the cell surface of Jurkat E6.1 cells (UniProt P07766); experiment: flow cytometry on Jurkat E6.1 cells, 1000 nM antibody, anti-IgG1-PE; negative control
[6] = biological target: CD3 on the cell surface of Jurkat E6.1 cells (UniProt P07766); experiment: flow cytometry on Jurkat E6.1 cells, 3.16 nM antibody, anti-IgG1-PE; negative control
[7] = biological target: CD3 on the cell surface of Jurkat E6.1 cells (UniProt P07766); experiment: flow cytometry on Jurkat E6.1 cells, 0.32 nM antibody, anti-IgG1-PE; negative control
[8] = biological target: CD3 on the cell surface of Jurkat E6.1 cells (UniProt P07766); experiment: flow cytometry on Jurkat E6.1 cells, 31.6 nM antibody, anti-IgG1-PE; negative control

Chain of CD3 on the cell surface of Jurkat E6.1 cells (P07766 23-207): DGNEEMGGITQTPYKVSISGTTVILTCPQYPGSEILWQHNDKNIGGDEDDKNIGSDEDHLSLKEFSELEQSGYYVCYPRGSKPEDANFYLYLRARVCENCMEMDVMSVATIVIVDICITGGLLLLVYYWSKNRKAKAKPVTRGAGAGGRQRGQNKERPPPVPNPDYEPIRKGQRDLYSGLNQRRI
Chain of FcRn receptor (P55899 24-297, chain 1 of 2): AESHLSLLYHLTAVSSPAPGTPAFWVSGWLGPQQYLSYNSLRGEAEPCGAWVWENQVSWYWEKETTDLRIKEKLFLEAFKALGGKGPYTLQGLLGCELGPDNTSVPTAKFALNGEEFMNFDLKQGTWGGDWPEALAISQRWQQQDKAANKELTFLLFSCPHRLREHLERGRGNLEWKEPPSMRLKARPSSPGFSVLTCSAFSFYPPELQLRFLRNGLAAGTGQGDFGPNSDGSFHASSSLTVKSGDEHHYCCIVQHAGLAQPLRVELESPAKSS
Chain of FcRn receptor (P61769 21-119, chain 2 of 2, further chain): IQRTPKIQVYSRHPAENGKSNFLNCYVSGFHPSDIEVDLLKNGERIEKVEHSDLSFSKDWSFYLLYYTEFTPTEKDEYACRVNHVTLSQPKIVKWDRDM

Substance	Kd (FcRn receptor)	median fluorescence intensity [1]	median fluorescence intensity [2]	median fluorescence intensity [3]	median fluorescence intensity [4]	median fluorescence intensity [5]	median fluorescence intensity [6]	median fluorescence intensity [7]	median fluorescence intensity [8]
Irrelevant IgG1 WT (antibody)	1740 nM								
Rituximab (antibody)		55.5	55	60.8	56.5	66.4	55.4	58.3	58.7

From patent US20230190951A1, “CONJUGATES OF ANTIBODIES AN IMMUNE CELL ENGAGERS” (SYNAFFIX B.V., priority 2020, published 2023)
